Measured values from IntAct's records for PubMed 9024666.

B1: Apoptosis regulator ced-9 (Caenorhabditis elegans), P41958 (parent)
chain: MTRCTADNSLTNPAYRRRTMATGEMKEFLGIKGTEPTDFGINSDAQDLPSPSRQASTRRMSIGESIDGKINDWEEPRLDIEGFVVDYFTHRIRQNGMEWFGAPGLPCGVQPEHEMMRVMGTIFEKKHAENFETFCEQLLAVPRISFSLYQDVVRTVGNAQTDQCPMSYGRLIGLISFGGFVAAKMMESVELQGQVRNLFVYTSLFIKTRIRNNWKEHNRSWDDFMTLGKQMKEDYERAEAEKVGRRKQNRRWSMIGAGVTAGAIGIVGVVVCGRMMFSLK
partner: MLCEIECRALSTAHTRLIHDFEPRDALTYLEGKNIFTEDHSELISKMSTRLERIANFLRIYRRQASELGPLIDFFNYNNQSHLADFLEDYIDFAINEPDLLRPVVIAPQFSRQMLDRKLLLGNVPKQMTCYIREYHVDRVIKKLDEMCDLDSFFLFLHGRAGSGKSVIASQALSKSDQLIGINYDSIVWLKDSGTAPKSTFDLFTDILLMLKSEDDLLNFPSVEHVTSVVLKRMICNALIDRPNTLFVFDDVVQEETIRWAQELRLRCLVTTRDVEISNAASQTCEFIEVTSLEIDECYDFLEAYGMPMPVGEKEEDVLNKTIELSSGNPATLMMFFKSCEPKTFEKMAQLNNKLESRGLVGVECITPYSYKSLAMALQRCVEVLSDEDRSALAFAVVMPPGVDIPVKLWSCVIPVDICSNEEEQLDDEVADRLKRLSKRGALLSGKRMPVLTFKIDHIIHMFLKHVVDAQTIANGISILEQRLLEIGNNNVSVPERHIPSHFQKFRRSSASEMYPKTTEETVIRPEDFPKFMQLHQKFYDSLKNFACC

Variants of: B1
Settings: with ced4_caeel ced-4, P30429
For Y149N, the “effect of a mutation on the interaction” value was “decreasing interaction”.
